US20250376518A1 (UNIVERSITE DE MONTPELLIER, published 2025)

B1: IGF-1202 (IGF-1168 HcAb IGF-1159), biparatopic IGF1202-tag6xHIS (VHH)
chain: QVQLVQSGGGLVQAGGSLRLSCAASVRFFSINTMGWYRQAPGKQRELVADITSSGSTNYADSGKGRFTISRDNAKNTVYLQMNRLKPEDTAVYYCHADYKYTTHNTAWGQGTQVTVSSEPKIPQPQPKPQPQPQPQPQPKPQPKPEPQVQLVQSGGGLVQAGGSLRLSCAASGRTFSSFAMAWFRQAPGKEREFVAAISWSGSTGHADSVKGRFTITRDNAKNTVFLQMNSLKPEDTAVYYCALGKGSSYYYSPSGYDYWGQGTQVTVSSLEHHHHHH
B2: IGF1202-d2 (red-labeled IGF1202) (VHH)
chain: B1 chain
modifications: d2 fluorophore coupled with d2-NHS, conditions set for 2 to 3 fluorophores per nanobody; sites not stated
notes: also called red-labled IGF1202
B3: IGF-1251 (IGF-1159 GS IGF-1168) (VHH)
chain: QVQLVQSGGGLVQAGGSLRLSCAASGRTFSSFAMAWFRQAPGKEREFVAAISWSGSTGHADSVKGRFTITRDNAKNTVFLQMNSLKPEDTAVYYCALGKGSSYYYSPSGYDYWGQGTQVTVSSGGGGSGGGGSGGGGSQVQLVQSGGGLVQAGGSLRLSCAASVRFFSINTMGWYRQAPGKQRELVADITSSGSTNYADSGKGRFTISRDNAKNTVYLQMNRLKPEDTAVYYCHADYKYTTHNTAWGQGTQVTVSSLEHHHHHH
notes: Bivalent biparatopic nanobody, two VHH in tandem
B4: IGF-1168 nanobody (VHH)
VHH: QVQLVQSGGGLVQAGGSLRLSCAASVRFFSINTMGWYRQAPGKQRELVADITSSGSTNYADSGKGRFTISRDNAKNTVYLQMNRLKPEDTAVYYCHADYKYTTHNTAWGQGTQVTVSS
notes: PAM nanobody, mGlu2 specific; not shown: His tag (nanobodies in the assay are His-tagged)
B5: IGF-1261 (IGF-1168 GS IGF-1168) (VHH)
chain: QVQLVQSGGGLVQAGGSLRLSCAASVRFFSINTMGWYRQAPGKQRELVADITSSGSTNYADSGKGRFTISRDNAKNTVYLQMNRLKPEDTAVYYCHADYKYTTHNTAWGQGTQVTVSSGGGGSGGGGSGGGGSQVQLVQSGGGLVQAGGSLRLSCAASVRFFSINTMGWYRQAPGKQRELVADITSSGSTNYADSGKGRFTISRDNAKNTVYLQMNRLKPEDTAVYYCHADYKYTTHNTAWGQGTQVTVSSLEHHHHHH
B6: IGF-1252 (IGF-1159 HcAb IGF-1168) (VHH)
chain: QVQLVQSGGGLVQAGGSLRLSCAASGRTFSSFAMAWFRQAPGKEREFVAAISWSGSTGHADSVKGRFTITRDNAKNTVFLQMNSLKPEDTAVYYCALGKGSSYYYSPSGYDYWGQGTQVTVSSEPKIPQPQPKPQPQPQPQPQPKPQPKPEPQVQLVQSGGGLVQAGGSLRLSCAASVRFFSINTMGWYRQAPGKQRELVADITSSGSTNYADSGKGRFTISRDNAKNTVYLQMNRLKPEDTAVYYCHADYKYTTHNTAWGQGTQVTVSSLEHHHHHH
notes: as for B3
B7: IGF-1262 (IGF-1168 HcAb IGF-1168) (VHH)
chain: QVQLVQSGGGLVQAGGSLRLSCAASVRFFSINTMGWYRQAPGKQRELVADITSSGSTNYADSGKGRFTISRDNAKNTVYLQMNRLKPEDTAVYYCHADYKYTTHNTAWGQGTQVTVSSEPKIPQPQPKPQPQPQPQPQPKPQPKPEPQVQLVQSGGGLVQAGGSLRLSCAASVRFFSINTMGWYRQAPGKQRELVADITSSGSTNYADSGKGRFTISRDNAKNTVYLQMNRLKPEDTAVYYCHADYKYTTHNTAWGQGTQVTVSSLEHHHHHH
B8: IGF-1201 (IGF-1168 GS IGF-1159) (VHH)
chain: QVQLVQSGGGLVQAGGSLRLSCAASVRFFSINTMGWYRQAPGKQRELVADITSSGSTNYADSGKGRFTISRDNAKNTVYLQMNRLKPEDTAVYYCHADYKYTTHNTAWGQGTQVTVSSGGGGSGGGGSGGGGSQVQLVQSGGGLVQAGGSLRLSCAASGRTFSSFAMAWFRQAPGKEREFVAAISWSGSTGHADSVKGRFTITRDNAKNTVFLQMNSLKPEDTAVYYCALGKGSSYYYSPSGYDYWGQGTQVTVSSLEHHHHHH
notes: as for B3

Assays:
[1] = molecular target: T1, rat SNAP-tagged mGlu2 receptor (wild-type rat mGlu2 subunit with an HA-tag and a SNAP inserted just after the … (rat, UniProt P31421 19-872, SNAP tag labelled with SNAP-Lumi4-Tb in the TR-FRET binding assay)); assay: cell-based or functional assay
[2] = molecular target: T1, rat SNAP-tagged mGlu2 receptor …; assay: cell-based or functional assay; remark: listed apart in the source
[3] = molecular target: T1, rat SNAP-tagged mGlu2 receptor …; assay: TR-FRET saturation binding on HEK293 cells with SNAP-mGlu2, in the presence of agonist LY379268 1 uM; reference IGF1168
Method: (§1) Binding experiments by TR-FRET. HEK293 cells (ATCC CRL-1573) were transfected with rat SNAP-tagged mGlu2 receptors (Maurel et al. Nature Methods 2008). 24 h after transfection, cells were labeled in 150 mm cell culture plate with 100 nM SNAP-Lumi4Tb in DMEM-GlutaMAX for 1 h at 37° C., and then washed 3 times with Krebs buffer (10 mM Hepes pH7.4, 146 mM NaCl, 4.2 mM KCl, 1 mM CaCl2, 0.5 mM MgCl2, 5.6 mM glucose and bovine serum albumin 0.1%). Cells were detached using cell dissociation buffer (Sigma aldrich) transferred at 10 000 cells per well in a white 384-well plate (Greiner bio-one, PS, F-bottom, small volume, Hibase, medium binding). […] FRET signal was determined by measuring the sensitized acceptor emission (665 nm) and Tb donor emission (620 nm) using a 50 μs delay and 450 us integration time upon excitation at 337 nm on a PHERAstar FS plate-reader (BMG LabTech, Ortenberg, Germany). TR-FRET (or HTRF) ratio (665 nm/620 nm×10⁴, Cisbio patent 8 U.S. Pat. No. 5,527,684) was calculated for preventing interferences due to medium variability and chemical compound or to normalize experiments when using cells expressing different receptor levels. […]

[4] = molecular target: T1, rat SNAP-tagged mGlu2 receptor …; assay: apparent affinity, TR-FRET saturation binding on HEK293 cells with SNAP-mGlu2, in the presence of agonist LY379268 1 uM
Method: as §1

[5] = molecular target: T1, rat SNAP-tagged mGlu2 receptor …; assay: TR-FRET saturation binding on HEK293 cells with Lumi4-Tb-labelled rat SNAP-mGlu2, anti-6His-d2; active conformation (1 uM LY379268)
Method: (§2) Each datapoint represents the mean±s.d. of an individual experiment performed in triplicate.
(§3) Binding experiments by TR-FRET. HEK293 cells (ATCC CRL-1573) were transfected with rat SNAP-tagged mGlu2 receptors (Maurel et al. Nature Methods 2008). 24 h after transfection, cells were labeled in 150 mm cell culture plate with 100 nM SNAP-Lumi4Tb in DMEM-GlutaMAX for 1 h at 37° C., and then washed 3 times with Krebs buffer (10 mM Hepes pH7.4, 146 mM NaCl, 4.2 mM KCl, 1 mM CaCl2, 0.5 mM MgCl2, 5.6 mM glucose and bovine serum albumin 0.1%). Cells were detached using cell dissociation buffer (Sigma aldrich) transferred at 10 000 cells per well in a white 384-well plate (Greiner bio-one, PS, F-bottom, small volume, Hibase, medium binding). Increasing concentration of His-tagged nanobodies together with either 1 μM LY379268 (Tocris, Bio-techne, France) or 1 μM LY341495 (Tocris, Bio-techne, France) and with 200 nM of anti-6His-d2 (Tocris, Bio-techne, France) were applied on Lumi4Tb-labeled cells in a final volume of 20 μL and incubated overnight at 20° C. FRET signal was determined by measuring the sensitized acceptor emission (665 nm) and Tb donor emission (620 nm) using a 50 μs delay and 450 us integration time upon excitation at 337 nm on a PHERAstar FS plate-reader (BMG LabTech, Ortenberg, Germany). TR-FRET (or HTRF) ratio (665 nm/620 nm×10⁴, Cisbio patent 8 U.S. Pat. No. 5,527,684) was calculated for preventing interferences due to medium variability and chemical compound or to normalize experiments when using cells expressing different receptor levels.

[6] = molecular target: T1, rat SNAP-tagged mGlu2 receptor …; assay: TR-FRET saturation binding on HEK293 cells with Lumi4-Tb-labelled rat SNAP-mGlu2, anti-6His-d2; inactive conformation (1 uM LY341495)
Method: as §2, §3

[7] = molecular target: T2, mouse mGlu2 receptor in brain tissue sections of wild-type C57BL/6J mice (mouse, UniProt Q14BI2 19-872); assay: ex vivo immunohistofluorescence on mouse brain sections; no labeling in sections from mGlu2-/- mouse
T2 construct: whole, on cells; Endogenous receptor in fixed tissue sections; mGlu2-/- mouse sections were the negative control
Method: Histological processing of brains. Wild-type C57BL/6J mice were purchased from Janvier Labs and brains from mGlu2−/− mice were kindly provided by Dr. Gonzalez-Maeso. Mice were anesthetized (Euthasol Vet 8%, Alcyon, Pau, France) and sacrificed by a cardiac perfusion of 4% paraformaldehyde (PFA). Brains were extracted and fixed in a 4% PFA solution (Euromedex, Souffelweyersheim, France) overnight at 4° C. Brains were rinsed in PBS and cryoprotected in a 30% sucrose solution for 4 days at 4° C. Brains were then included in OCT (Tissue-Tek, Sakura Finetek, Villeneuve d′Asq, France), quickly frozen in acetone chilled on dry ice and conserved at −80° C. until use. Frozen brains included in OCT, were put at −20° C. 24 h prior cryo-sectioning. They were then mounted on a cryostat (Leica, Nanterre, France) and 16 um coronal or sagittal sections were performed and directly mounted on Superfrost Plus glass slides (Microm) and kept at −20° C., until use. For immunohistofluorescence experiments, coronal and sagittal brain tissue sections of WT and mGlu2^{-/-} mice were blocked 1 h at 25° C. with a blocking solution (3% BSA, 0.1% Triton X100 in PBS) and incubated with IGF1202-d2 (200 nM), overnight at 4° C., to label mGlu2 receptors. Sections were washed with PBS with distilled water and mounted using […]

T1 sequence (P31421 19-872): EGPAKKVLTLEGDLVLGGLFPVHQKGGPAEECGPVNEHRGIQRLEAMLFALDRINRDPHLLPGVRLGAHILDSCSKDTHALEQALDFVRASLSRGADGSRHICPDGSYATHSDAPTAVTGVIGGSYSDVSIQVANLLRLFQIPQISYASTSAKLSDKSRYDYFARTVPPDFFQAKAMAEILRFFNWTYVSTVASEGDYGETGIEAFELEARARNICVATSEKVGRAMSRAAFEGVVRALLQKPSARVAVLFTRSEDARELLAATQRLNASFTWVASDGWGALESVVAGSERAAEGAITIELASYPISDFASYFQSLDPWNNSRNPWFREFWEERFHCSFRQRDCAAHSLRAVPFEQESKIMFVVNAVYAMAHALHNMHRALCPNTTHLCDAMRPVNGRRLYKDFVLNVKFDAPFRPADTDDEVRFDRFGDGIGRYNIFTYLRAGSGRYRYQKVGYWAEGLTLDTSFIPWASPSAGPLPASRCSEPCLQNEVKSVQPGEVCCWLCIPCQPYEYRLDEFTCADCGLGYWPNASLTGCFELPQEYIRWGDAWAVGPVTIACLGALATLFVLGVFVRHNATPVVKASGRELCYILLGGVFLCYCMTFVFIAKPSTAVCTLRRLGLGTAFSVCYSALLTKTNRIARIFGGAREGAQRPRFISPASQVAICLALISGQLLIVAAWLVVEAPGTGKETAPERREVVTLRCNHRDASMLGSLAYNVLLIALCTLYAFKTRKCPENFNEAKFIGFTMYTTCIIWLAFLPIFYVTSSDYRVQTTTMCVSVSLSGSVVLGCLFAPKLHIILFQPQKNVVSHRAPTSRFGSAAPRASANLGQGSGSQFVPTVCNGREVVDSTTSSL
T2 sequence (Q14BI2 19-872): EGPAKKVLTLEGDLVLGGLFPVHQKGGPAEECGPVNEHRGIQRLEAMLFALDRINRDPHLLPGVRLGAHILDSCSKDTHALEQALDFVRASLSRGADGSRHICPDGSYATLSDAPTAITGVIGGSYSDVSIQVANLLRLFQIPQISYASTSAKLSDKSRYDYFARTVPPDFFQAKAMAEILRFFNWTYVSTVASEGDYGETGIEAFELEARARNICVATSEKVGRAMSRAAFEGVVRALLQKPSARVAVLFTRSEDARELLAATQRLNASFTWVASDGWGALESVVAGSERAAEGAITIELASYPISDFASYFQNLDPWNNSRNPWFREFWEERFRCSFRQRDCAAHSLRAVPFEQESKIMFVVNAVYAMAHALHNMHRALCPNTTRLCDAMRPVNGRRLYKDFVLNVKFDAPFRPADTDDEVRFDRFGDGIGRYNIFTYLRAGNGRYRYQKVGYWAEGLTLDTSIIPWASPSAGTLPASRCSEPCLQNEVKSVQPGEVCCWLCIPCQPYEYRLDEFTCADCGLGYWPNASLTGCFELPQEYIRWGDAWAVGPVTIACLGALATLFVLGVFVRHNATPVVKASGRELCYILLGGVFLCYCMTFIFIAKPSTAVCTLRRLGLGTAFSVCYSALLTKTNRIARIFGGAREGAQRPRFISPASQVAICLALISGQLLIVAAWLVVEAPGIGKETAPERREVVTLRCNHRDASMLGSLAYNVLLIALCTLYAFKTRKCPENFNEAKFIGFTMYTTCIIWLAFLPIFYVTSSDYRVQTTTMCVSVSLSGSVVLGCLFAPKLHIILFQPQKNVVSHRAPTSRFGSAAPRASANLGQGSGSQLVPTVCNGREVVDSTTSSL

Binder	pEC50, PAM potency (IP1 accumulation) [1]	pEC50 of the PAM effect on G protein coupling (IP1 accumulation with 0.6 nM LY379268, EC20) [2]	fold increase in the apparent affinity compared to IGF1168 [3]	Kd [4]	pKd [5]	pKd [6]	binding result [7]
B1	9.16 -log10 M	8.81 -log10 M	10 fold	0.3 nM	9.27 -log10 M	8.87 -log10 M	
B2							binds
B3		7.65 -log10 M			8.99 -log10 M	8.54 -log10 M	
B4	7.22 -log10 M			4.93 nM			
B5		7.62 -log10 M			8.51 -log10 M		
B6		7.94 -log10 M			8.77 -log10 M	8.49 -log10 M	
B7		7.2 -log10 M			8.23 -log10 M		
B8		8.25 -log10 M			9.34 -log10 M	8.95 -log10 M	
